A short description of data set [1]: Relative activity on ATP of CRC22110 single-site variants. It counts as biochemical. To be noted: in comparison to CRC22110 wild type.
Data set [2] in a line: Enzyme acid resistance: residual activity on ATP after incubation at pH 2. The class given is physicochemical. To be noted: FIG. 4; for stability in acid resistance assay: pH 2 for 15 or 60 min. The method, then: Enzyme acid resistance: Candidate enzymes were tested for their ability to resist inactivation at low pH by incubating the enzymes in an “acid buffer” of 50 mM glycine and 5 mM CaCl2 at pH 2 for 15 or 60 minutes and comparing their activity to enzymes in a “control buffer” at their optimum pH. The optimum buffer for CRC21323 and CRC21322 was 50 mM acetate pH 4.5 with 5 mM CaCl2. The optimum buffer for all other enzymes was 50 mM bis-Tris pH 6.5 with 5 mM CaCl2. After incubating in the acidic glycine buffer, the enzyme mixtures were neutralized by mixing with an equal volume of neutralization buffer. The neutralization buffer for CRC21323 and CRC21322 was 100 mM acetate and 10 mM CaCl2 at pH 4.5. The neutralization buffer for the other enzymes was 100 mM bis-Tris and 10 mM CaCl2 at pH 6.5. Next, the acid-stressed and control enzyme were tested for their ability to release phosphate from ATP using the reaction conditions and malachite green assay as described in with the following changes. The only substrate tested was ATP. CRC21323 and CRC21322 were tested with a buffer of acetate pH 4.5, but all other enzymes were tested in a buffer of bis-Tris pH 6.5. After determining the concentration of phosphate in each reaction, the residual activity of each enzyme after 15 or 60 min incubation in the “acid buffer” was calculated by dividing the acid-stressed by the control enzyme phosphate concentrations for each enzyme.

Data set [3] can be described thus: ATPase activity at 0.05 ppm enzyme on 0.1 mM ATP (absorbance 620 nm). It counts as biochemical. The following applies: for Activity on ATP (absorbance at 620 nm, blank subtracted), pH 5.0: 50 mM IVIES buffer pH 5; for Activity on ATP (absorbance at 620 nm, blank subtracted), pH 6.0: 50 mM IVIES buffer pH 6. The method, then: Enzyme activity towards ATP or ADP at pH 3 to 9: The ability of candidate enzymes to degrade ATP or ADP to AMP and free phosphate (Pi) was measured using a standard malachite green phosphate detection kit (Sigma Aldrich cat no. MAK307). The enzyme reactions were carried out in 96-well plates with a total volume of 150 μL and contained 250 μM of a substrate, 50 mM of a buffer, 5 mM CaCl2, and a variable concentration of enzyme. The substrate was ATP or ADP. The buffer was glycine (pH 3), acetate (pH 4, 4.5, 5), bis-Tris (pH 5.5, 6, 6.5), or Tris (pH 7, 8, 9). The concentration of enzyme varied from about 1 μg/mL to 1 ng/mL and was adjusted based on the activity of the enzyme so that the amount of phosphate released during the assay was with the dynamic range of the assay (5-100 μM phosphate). The enzyme concentration was determined by the absorbance at 280 nm and using the predicted molecular weight and molar extinction coefficient to calculate the concentration. The enzyme reaction was initiated by the addition of 15 μL enzyme with 135 μL of the other reaction components such that the final reaction composition was as previously described. The reaction was stopped after 5 min by mixing 80 μL of the reaction mixture with 20 μL of the malachite green working reagent. The malachite green working reagent was prepared according to the manufacturer's protocol by mixing 100 parts reagent A with 1 part reagent B. Phosphate standard solutions (0-80 μM) and a negative control reaction without enzyme were also mixed with the malachite green working reagent. All samples were tested in duplicate. The malachite green reaction mixture was allowed to rest at room temperature for 45-60 min and the absorbance at 620 nm was measured. Lastly, the absorbance of the phosphate standards were used to convert the absorbance readings of each sample into phosphate concentrations and the negative control was subtracted from each reaction.
Enzymes of interest were assayed against ATP substrate. The ATPase activity was measured at 0.05 ppm concentration in 50 mM IVIES buffer pH 6 and pH 5 with 0.1 mM ATP as substrate as described in Example 1. Commercial potato apyrase was used as reference. The absorbance at 620 nm was measured and the absorbance of a blank sample (water) was subtracted from each sample.

Data set [4] relates to Acute DSS colitis in C57BL/6 mice. As to the kind of experiment: Chemically-induced DSS colitis mouse model, disease activity index (DAI). The class given is in vivo. An excerpt: Acute DSS colitis was induced in C57BL/6 mice according to the previously published method with minor modification (Sann et al., 2013, Life Sci. April 9; 92(12):708-18). The mice were fed 3% (w/v) DSS dissolved in the drinking water on day one to day five. Fresh DSS solution was provided every other day. Control mice (Group 1) drank only distilled water. Groups 4 to 8 received candidate acid phosphatase enzymes by oral gavage and groups 9 to 12 received enzymes via catheter (Table 2). DAI was calculated as described earlier (Cooper et al., 1993, Laboratory investigation; a journal of technical methods and pathology. 69(2):238-49).

Changes are numbered by the printed parent chain. Numbers in names are those of the source.

B1: CRC22110v8: single-site variant F205A of CRC22110 (SEQ ID NO: 9) (protein, listed as Gallaecimonas xiamenensis)
chain: ADKPACRAVFDAGSSGTRLFLYVQQEGGWQPWPGAKLGALADPVRQHQGPKAMAALAADLANSLEALRQDGPTNSEGQPRWQGFDWQQACRLQSVSVLATAGMRLAEQQDPVASVALWQEVQQALAGLLGPAVAIDARTLTGFEEGFYAWLAARARLGRSDMGIVEMGGASSQVAFPCPACDRADDAVQQVRLEGQTLDFYSYSALGLGQDEAPKVLGVPHACRYGAGVKDPNWQLGQCQAQLPLTLGRALKDPYNFQGQGQGGYRQVPTEKAGVKDWLLTGAFQYNTPDQLDSCCLNQGQCYQPSTACFRVAYLPLYLDSLGVDPHSPDLDVSWTLGAVLCRNEQCLAPSKPPCRWRKAGCLAPSVGDGRPEGRPGQQPGGVQHRQH
As for B1, the “Relative activity (%) on ATP” value in data set [1] was found to be 68%.

B2: CRC22110v2: single-site variant L206A of CRC22110 (SEQ ID NO: 9) (protein, listed as Gallaecimonas xiamenensis)
chain: B1 chain with A205F, L206A
For the molecule B2, in data set [1], the “Relative activity (%) on ATP” value was 60%.

B3: CRC22110v10: single-site variant L206I of CRC22110 (SEQ ID NO: 9) (protein, listed as Gallaecimonas xiamenensis)
chain: B1 chain with A205F, L206I
Take B3: in data set [1], the “Relative activity (%) on ATP” value was found to be 16%.

B4: CRC22110v9: single-site variant F205L of CRC22110 (SEQ ID NO: 9) (protein, listed as Gallaecimonas xiamenensis)
chain: B1 chain with A205L
B4: the “Relative activity (%) on ATP” value in data set [1] is listed as 68%.

B5: CRC22110v5: single-site variant G209A of CRC22110 (SEQ ID NO: 9) (protein, listed as Gallaecimonas xiamenensis)
chain: B1 chain with A205F, G209A
Turning to B5, the “Relative activity (%) on ATP” value in data set [1] was 16%.

B6: CRC22110v1: single-site variant S204A of CRC22110 (SEQ ID NO: 9) (protein, listed as Gallaecimonas xiamenensis)
chain: B1 chain with S204A, A205F
As for B6, in data set [1], the “Relative activity (%) on ATP” value is 37%.

B7: CRC22110v4: single-site variant L208A of CRC22110 (SEQ ID NO: 9) (protein, listed as Gallaecimonas xiamenensis)
chain: B1 chain with A205F, L208A
For the molecule B7, the “Relative activity (%) on ATP” value in data set [1] was 74%.

B8: CRC22110v3: single-site variant G207A of CRC22110 (SEQ ID NO: 9) (protein, listed as Gallaecimonas xiamenensis)
chain: B1 chain with A205F, G207A
Regarding B8, in data set [1], the “Relative activity (%) on ATP” value turned out to be 60%.

B9: CRC22110v7: single-site variant S204T of CRC22110 (SEQ ID NO: 9) (protein, listed as Gallaecimonas xiamenensis)
chain: B1 chain with S204T, A205F
For B9, in data set [1], the “Relative activity (%) on ATP” value is 53%.

B10: CRC21322: Acid phosphatase (Class A), accession AEG96708.1, SEQ ID NO:17 (protein)
chain: KENKGFLNADTSPDSLAILPPPPTENSVAFLQDKADYETGRVLKNKERTELAAKDANYKNFGQAFSEAFGMVISAERTPVLYLLLSEVLQDSHDYAMRSAKDHYMRVRPFVLYKNPTCTPEKDDKMAKTGSYPSGHASFGWAAALVLAEINPARETEILKRGMDFGESRVVCGAHWQSDVDSGRIMGAAVVAALHANPRFANTLSEAKKEFAALSAKSE
modifications: Klebsiella aerogenes
On to B10, for which the “stability in acid resistance assay” value in data set [2] was “least stable”. In addition, in data set [3], the “Activity on ATP (absorbance at 620 nm, blank subtracted), pH 5.0” value (shortened to “Activity on ATP … pH 5.0”) came out at 0.40 and the “Activity on ATP (absorbance at 620 nm, blank subtracted), pH 6.0” value (from here on “Activity on ATP … pH 6.0”) turned out to be 0.07.

B11: CRC21328: GDA1/CD39 family enzyme, accession CCD05982.1, SEQ ID NO:6 (protein, listed as Legionella pneumophila)
chain: DTNPCEKHSCIAVIDAGSTGSRLHIYSYDTDNTNTPIHIEEIWNKKIKPGFASIQPNSVTIDAYLTMLLADAPIHNIPVYFYATAGMRLLPQSQQKKYYDELEYWFRQQSQWQLVEAKTITGNDEALFDWLAVNYKLDTLKSVQNKSVGVMDMGGASVQIVFPMPKNAEISKHNQVELNIYGQNINLYVHSFLGLGQTEMSHQFLNSPSCFANDYPLPDGESGQGNAPSCKEEVTSLMNSVHKVNQQIQPLLALNPVNEWYSIGGISNLASSQLFHFENSELTNQSLLQQGDNQICHQQWDILNGQYPDDEYLYQYCLLSSYYYALMVDGYGINPNQTIHYIPPEQNLDWTIGVVLHRA
With B11, the “residual activity after incubation at pH 2” value in data set [2] (60 min in acid buffer, 50 mM glycine, 5 mM CaCl2) is “greatest resistance”. Also, in data set [3], the “Activity on ATP … pH 5.0” value came to 0.45 and the “Activity on ATP … pH 6.0” value is reported as 0.27.

B12: CRC21323: Acid phosphatase (Class A), accession WP_054306375.1, SEQ ID NO:18 (predicted mature), SEQ ID NO:2 (protein, listed as Serratia rubidaea)
chain: AQTPGFLTPETAPDSLQILPPPPAENTTAFLNDKAAYETGKTLKDAQRQALAASDADYKNISAAFSAAFGEEISPEKTPALYALLQGVLQDSHDYAMRAAKDHYMRVRPFVVYKDSTCTPEKDKSMAKTGSYPSGHASFGWATALVLTEINPARETEILKRGYDFGQSRVVCGAHWQSDVDNGRLMGAAVVAALHGNQGFNDALAKAKAEFAKR
With B12, the “stability in acid resistance assay” value in data set [2] is listed as “least stable”. Besides, the “reduction in DAI score compared to control” value in data set [4] (catheterized mice, test items via cecum BID, FIG. 6A, 6B) was 40%. Besides, the “improvement in DAI score compared to control” value in data set [4] (non-catheterized mice, oral gavage BID, FIG. 5A, 5B) was found to be 43%. Moreover, in data set [3], the “Activity on ATP … pH 5.0” value stood at 0.39 and the “Activity on ATP … pH 6.0” value is 0.10.

Source of the values: patent US20240124857A1, “COMPOSITION FOR GUT HEALTH” (DUPONT NUTRITION BIOSCIENCES APS, priority 2021, published 2024).
